{"source": "paper PMC11169542", "about": "“A probe for NIR-II imaging and multimodal analysis of early Alzheimer’s disease by targeting CTGF” (Nature Communications, 2024)", "key": {"CTX TNA2 cells": {"test_system": "CTX TNA2 cells", "assay": "Cytotoxicity of DGC (CCK-8)", "type": "cell-based", "set-up": "key to Cell viability: viability relative to control cells (control = 1)", "settings": "for Cell viability: 24 h, CCK-8, normalized to control", "experimental": "U87MG, SH-SY5Y, and CTX TNA2 cells were seeded into 96-well plates at a density of 5 × 10^3 cells per well and were incubated at 37 °C for 24 h. Then, the cells were treated with 5, 10, 20, 50, 100, and 500 µM DGC for 24 h. Next, 10 µL of a colorimetric Cell Counting Kit (CCK-8) reagent diluted with 100 µL medium was added to each well, and incubated for 30 min, The absorbance at 450 nm was measured using a microplate reader (Molecular Devices, San Jose, CA, USA). The relative viability was normalized to control cells. The experiment was performed in triplicates."}, "[1]": {"assay": "ICP-MS of Au in whole brains of DGC-injected mice", "type": "in vivo, APP/PS1 and WT mice", "settings": "DGC-injected 3-month-old APP/PS1 mice vs WT, n = 3", "experimental": "SH-SY5Y cell, maybe resulting in a similar perception of fluorescence intensity.\nReviewer 1: The ICP-MS of the whole brains from DGC-treated normal or APP/PS1 mice should be quantified, not only brain sections.\nNIR-II imaging in Fig. 4 were frozen grinded and digested, and the content of Au in the whole brain was measured by ICP-MS. […]\nwhich was consistent with the results of the NIR -II imaging.\nFigure R7. The Au content in brains of DGC -injected 3-month-old APP/PS1 mice and the age- […]\nhippo? Is there any experiment or literature to support the content of CTGF at different positions in different periods?\nResponse: According to previous reports, the expression pattern of CTGF was slightly different in several AD mouse models. The homing of DAG peptide was mainly seen in the cortex of the Tg2576 mice and in the hippocampus of the hAPP-J20 mice (Nat.\nCommun. 2017, 8, 1403). A marked increase of CTGF levels in the brains of APP/PS1 transgenic mice were also observed, and is mainly located in the cortical (Mol.\n(1 picture or pasted object on this page, not shown here)"}, "[2]": {"assay": "Absolute quantum yield, integrated sphere technique", "type": "physicochemical", "experimental": "Figure R6. Stability of DGC in AD brains. Monitoring fluorescence intensity of DGC in brain of WT mice and 3-month-old APP/PS1 mice for 24 h (left). In vivo and ex vivo NIR-II imaging of brains after DGC injected for 24 h (right).\nThe absolute quantum yield (QY) of DGC probe was measured to be ~0.7% using an […]\nfor biological applications. Although this QY is not high, but sufficient to produce a bright signal in the AD mouse brain for detection in vivo in this study.\nReviewer 3: The co-localization coefficient should be calculated in Figure 2d. […]\nwas calculated by Image J software. The co-localization coefficient (Pearson's correlation coefficient) of DGC and CTGF antibodies in Figure 2d was 0.946 (Fig. R15).\nFigure R15. The co-localization coefficient (Pearson's correlation coefficient) of DGC and CTGF […]"}, "CTGF": {"molecular_target": "T1, CTGF (Homo sapiens, UniProt P29279)", "T1 sequence (P29279 27-349)": "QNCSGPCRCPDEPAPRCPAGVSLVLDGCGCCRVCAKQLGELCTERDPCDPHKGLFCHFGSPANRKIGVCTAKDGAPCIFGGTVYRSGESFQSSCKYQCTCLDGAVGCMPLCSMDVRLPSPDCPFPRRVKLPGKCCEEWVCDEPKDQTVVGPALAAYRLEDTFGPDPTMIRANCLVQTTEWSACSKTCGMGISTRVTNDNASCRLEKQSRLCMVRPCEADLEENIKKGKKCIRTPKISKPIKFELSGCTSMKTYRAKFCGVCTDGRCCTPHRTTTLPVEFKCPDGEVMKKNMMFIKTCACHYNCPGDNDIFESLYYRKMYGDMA", "assay": "DGC fluorescence labelling of human postmortem brain sections", "set-up": "The brain tissue samples of autopsy-confirmed AD patients were obtained from the Chinese Brain Bank Center; from tissue; host or cells: postmortem human brain sections (hippocampus, cortex) of AD patients and healthy controls", "settings": "for fluorescence (FL) intensity of DGC: cortex section, ImageJ", "experimental": "The brain tissue samples of autopsy-confirmed AD patients were obtained from the Chinese Brain Bank Center (CBBC) and Human Brain Bank, Central South University Xiangya School of Medicine. First, the brain sections were air-dried for 15 min at room temperature, followed by immersion in water. 5% H2O2 was applied for 15 min at room temperature. The sections were washed three times with PBS for 5 min each time. Then, tissue repair was performed using trypsin at a temperature of 37 °C for 5 min and washed three times with PBS. We chose 10% sheep serum to block for a duration of 20 min at 37°. Primary antibodies (CTGF antibody and Aβ antibody) were added to the sections overnight at 4 °C. FITC-labeled Goat Anti-Rabbit IgG (H + L) (1: dilution 1:200, Bioss, Cat#bs-0370R-FITC) was applied and incubated at 37 °C for 20 min in darkness. Subsequent washing steps involved rinsing the sections three times with PBS, each time lasting for 5 min while avoiding exposure to light. DAPI staining was performed, taking care to store the samples away from light during the 5-min procedure. Then observed by the CLSM system. Then, we chose the optimal incubation concentration of DGC (200 μM) was used to determine the conditions using DAB Horseradish Peroxidase Color Development Kit. After the brain sections were co-stained by DGC (200 μM) at 4 °C overnight, a DAB chromogenic agent was added to the brain tissue sections to explore whether DGC can catalyze DAB solutions to produce insoluble brown precipitate to attach the brain tissue sections with an optical microscope. Finally, the brain tissue sections were digested with aqua regia to measure the Au content by the ICP-MS system."}}, "note": "Ends that are not written are not given here.", "data": [{"substance": "DGC: CTGF-targeting peptide-coated gold nanocluster: one Au26 gold nanocluster coated by eight DAG cyclic peptides, NIR-II and red fluorescence (CDAGRKQKC; also: cyclic peptide, ring not given here, eight peptides on one Au26 nanocluster via Cys Au-S bonds)", "values": [{"measurement": "Cell viability", "setting": "CTX TNA2 cells; 5 μM (Au content), replicate 1", "result": 1.236}, {"measurement": "Cell viability", "setting": "CTX TNA2 cells; 5 μM (Au content), replicate 2", "result": 1.185}, {"measurement": "Cell viability", "setting": "CTX TNA2 cells; 5 μM (Au content), replicate 3", "result": 1.252}, {"measurement": "Cell viability", "setting": "CTX TNA2 cells; 10 μM (Au content), replicate 1", "result": 1.248}, {"measurement": "Cell viability", "setting": "CTX TNA2 cells; 10 μM (Au content), replicate 2", "result": 1.23}, {"measurement": "Cell viability", "setting": "CTX TNA2 cells; 10 μM (Au content), replicate 3", "result": 1.328}, {"measurement": "Cell viability", "setting": "CTX TNA2 cells; 20 μM (Au content), replicate 1", "result": 1.233}, {"measurement": "Cell viability", "setting": "CTX TNA2 cells; 20 μM (Au content), replicate 2", "result": 1.3}, {"measurement": "Cell viability", "setting": "CTX TNA2 cells; 20 μM (Au content), replicate 3", "result": 1.347}, {"measurement": "Cell viability", "setting": "CTX TNA2 cells; 50 μM (Au content), replicate 1", "result": 1.269}, {"measurement": "Cell viability", "setting": "CTX TNA2 cells; 50 μM (Au content), replicate 2", "result": 1.237}, {"measurement": "Cell viability", "setting": "CTX TNA2 cells; 50 μM (Au content), replicate 3", "result": 1.251}, {"measurement": "Cell viability", "setting": "CTX TNA2 cells; 100 μM (Au content), replicate 1", "result": 1.349}, {"measurement": "Cell viability", "setting": "CTX TNA2 cells; 100 μM (Au content), replicate 2", "result": 1.363}, {"measurement": "Cell viability", "setting": "CTX TNA2 cells; 100 μM (Au content), replicate 3", "result": 1.443}, {"measurement": "Cell viability", "setting": "CTX TNA2 cells; 500 μM (Au content), replicate 1", "result": 1.758}, {"measurement": "Cell viability", "setting": "CTX TNA2 cells; 500 μM (Au content), replicate 2", "result": 1.646}, {"measurement": "Cell viability", "setting": "CTX TNA2 cells; 500 μM (Au content), replicate 3", "result": 1.62}, {"measurement": "cytotoxicity", "setting": "CTX TNA2 cells; DGC incubation 24 h, CCK-8", "result": "did not cause any obvious cytotoxicity"}, {"measurement": "Au content in whole brain, APP/PS1 vs age-matched WT", "setting": "[1]", "result": "more than twice"}, {"measurement": "absolute quantum yield (QY)", "setting": "[2]", "result": "~ 0.7%"}, {"measurement": "FL Intensity", "setting": "CTGF; AD 1, Cortex section stained with DGC", "result": 8.08}, {"measurement": "FL Intensity", "setting": "CTGF; AD 1, Hippocampus section stained with DGC", "result": 9.357}, {"measurement": "FL Intensity", "setting": "CTGF; AD 2, Cortex section stained with DGC", "result": 14.1982}, {"measurement": "FL Intensity", "setting": "CTGF; AD 2, Hippocampus section stained with DGC", "result": 17.484}, {"measurement": "fluorescence (FL) intensity of DGC", "setting": "CTGF; Case 1 (healthy control, Thal 0), section 1", "result": 0.3032}, {"measurement": "fluorescence (FL) intensity of DGC", "setting": "CTGF; Case 1 (healthy control, Thal 0), section 2", "result": 0.3289}, {"measurement": "fluorescence (FL) intensity of DGC", "setting": "CTGF; Case 1 (healthy control, Thal 0), section 3", "result": 0.3505}, {"measurement": "fluorescence (FL) intensity of DGC", "setting": "CTGF; Case 2 (healthy control, Thal 0), section 1", "result": 0.2446}, {"measurement": "fluorescence (FL) intensity of DGC", "setting": "CTGF; Case 2 (healthy control, Thal 0), section 2", "result": 0.3615}, {"measurement": "fluorescence (FL) intensity of DGC", "setting": "CTGF; Case 2 (healthy control, Thal 0), section 3", "result": 0.163}, {"measurement": "fluorescence (FL) intensity of DGC", "setting": "CTGF; Case 3 (AD, Thal 1), section 1", "result": 0.6904}, {"measurement": "fluorescence (FL) intensity of DGC", "setting": "CTGF; Case 3 (AD, Thal 1), section 2", "result": 0.8926}, {"measurement": "fluorescence (FL) intensity of DGC", "setting": "CTGF; Case 3 (AD, Thal 1), section 3", "result": 0.6063}, {"measurement": "fluorescence (FL) intensity of DGC", "setting": "CTGF; Case 4 (AD, Thal 1), section 1", "result": 0.9911}, {"measurement": "fluorescence (FL) intensity of DGC", "setting": "CTGF; Case 4 (AD, Thal 1), section 2", "result": 1.101}, {"measurement": "fluorescence (FL) intensity of DGC", "setting": "CTGF; Case 4 (AD, Thal 1), section 3", "result": 1.556}, {"measurement": "FL Intensity", "setting": "CTGF; HC 1, Cortex section stained with DGC", "result": 1.2358}, {"measurement": "FL Intensity", "setting": "CTGF; HC 1, Hippocampus section stained with DGC", "result": 1.043}, {"measurement": "FL Intensity", "setting": "CTGF; HC 2, Cortex section stained with DGC", "result": 1.632}, {"measurement": "FL Intensity", "setting": "CTGF; HC 2, Hippocampus section stained with DGC", "result": 6.0176}]}]}
